Tests used:
[1] = biological target: T1, APRIL (Acro Biosystems, Cat: APL-H52D1) (UniProt O75888 115-250, limits assumed); experiment: ELISA, APRIL coated, anti-human Fc-HRP
T1 construct: also called ARPIL; A proliferation-inducing ligand
T1 sequence (looked up): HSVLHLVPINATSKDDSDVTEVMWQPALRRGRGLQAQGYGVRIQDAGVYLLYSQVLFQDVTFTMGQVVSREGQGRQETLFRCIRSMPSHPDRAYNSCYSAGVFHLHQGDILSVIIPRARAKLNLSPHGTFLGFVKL

[2] = biological target: T1, APRIL (Acro Biosystems, Cat: APL-H52D1); experiment: ELISA, APRIL coated, anti-human Fc-HRP, OD450
Description: The capabilities of fusion proteins B606401, B637302, B746201, and B805201 to bind to BAFF and APRIL were assessed by ELISA as follows:
BAFF (PeproTech, Cat: 310-13) or ARPIL (Acro Biosystems, Cat: APL-H52D1) was diluted to 1 μg/mL with PBS, and a 96-well plate was coated with the dilution overnight at 4° C. The plate was washed with PBST and blocked with Blocking Buffer (PBST containing 1% BSA) at 37° C. for 1 h. The plate was tapped. The test antibodies were diluted with Blocking Buffer. Incubation was performed at 37° C. for 1.5 h. The plate was washed with PBST. An HRP-mouse anti-human Fc antibody (GenScript, Cat: A01854-200) was diluted with Blocking Buffer. Incubation was performed at 37° C. for 40 min. The plate was washed with PBST. 100 μL of TMB substrate solution (Biopanda, Cat: TMB-S-003) was added, and color development was performed at 37° C. for 3 min. 100 μL of ELISA stop solution (Solarbio, Cat: C1058) was added. OD450 was measured.
The EC₅₀ value for the capability of B637302 to bind to APRIL decreased to 1/7 to ⅙ of that of telitacicept.

[3] = biological target: T2, type I interferon (IFN) receptor subunit 1 (IFNAR1) (human, UniProt P17181 28-557); experiment: cell-based or functional assay
T2 sequence (looked up): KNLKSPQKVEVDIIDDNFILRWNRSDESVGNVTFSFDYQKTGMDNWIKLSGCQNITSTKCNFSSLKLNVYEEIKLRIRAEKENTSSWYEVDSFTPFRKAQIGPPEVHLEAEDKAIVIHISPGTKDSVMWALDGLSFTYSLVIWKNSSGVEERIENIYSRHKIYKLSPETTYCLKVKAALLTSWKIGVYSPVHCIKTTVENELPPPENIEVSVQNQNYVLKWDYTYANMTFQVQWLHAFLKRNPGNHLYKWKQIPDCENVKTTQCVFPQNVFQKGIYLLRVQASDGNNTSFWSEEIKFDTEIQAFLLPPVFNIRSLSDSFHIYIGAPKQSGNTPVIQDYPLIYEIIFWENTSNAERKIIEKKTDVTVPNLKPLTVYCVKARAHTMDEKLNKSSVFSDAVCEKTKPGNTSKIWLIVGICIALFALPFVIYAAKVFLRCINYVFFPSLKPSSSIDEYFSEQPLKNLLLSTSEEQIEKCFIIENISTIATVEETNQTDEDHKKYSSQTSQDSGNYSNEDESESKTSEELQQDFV

[4] = biological target: T2, type I interferon (IFN) receptor …; experiment: cell-based or functional assay; remark: listed apart in the source
[5] = biological target: recombinant human BAFF (R&D cat: 7537-BF-025/CF) (human, UniProt Q9Y275 134-285, limits assumed); experiment: cell-based or functional assay
Sequence of recombinant human BAFF (R&D cat: 7537-BF-025/CF) (Q9Y275 134-285 limits assumed): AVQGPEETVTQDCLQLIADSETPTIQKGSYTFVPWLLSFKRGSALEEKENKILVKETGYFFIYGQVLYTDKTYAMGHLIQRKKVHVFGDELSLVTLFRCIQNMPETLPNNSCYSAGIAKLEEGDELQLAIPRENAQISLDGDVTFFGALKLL

B1: B746201 (other)
heavy: EVQLVQSGAEVKKPGESLKISCKGSGYIFTNYWIAWVRQMPGKGLESMGIIYPGDSDIRYSPSFQGQVTISADKSITTAYLQWSSLKASDTAMYYCARHDIEGFDYWGRGTLVTVSSASTKGPSVFPLAPSSKSTSGGTAALGCLVKDYFPEPVTVSWNSGALTSGVHTFPAVLQSSGLYSLSSVVTVPSSSLGTQTYICNVNHKPSNTKVDKRVEPKSCDKTHTCPPCPAPEFEGGPSVFLFPPKPKDTLMISRTPEVTCVVVDVSHEDPEVKFNWYVDGVEVHNAKTKPREEQYNSTYRVVSVLTVLHQDWLNGKEYKCKVSNKALPASIEKTISKAKGQPREPQVYTLPPSRDELTKNQVSLTCLVKGFYPSDIAVEWESNGQPENNYKTTPPVLDSDGSFFLYSKLTVDKSRWQQGNVFSCSVMHEALHNHYTQKSLSLSPGKGGGGSGGGGSGGGGSMLQMAGQCSQNEYFDSLLHACIPCQLRCSSNTPPLTCQRYCSTSCREEQGEFYDHLLRDCISCASICGQHPKQCAAFCE
light: EIVLTQSPGTLSLSPGERATLSCRASQSVSSSFFAWYQQKPGQAPRLLIYGASSRATGIPDRLSGSGSGTDFTLTITRLEPEDFAVYYCQQYDSSAITFGQGTRLEIKRTVAAPSVFIFPPSDEQLKSGTASVVCLLNNFYPREAKVQWKVDNALQSGNSQESVTEQDSKDSTYSLSSTLTLSKADYEKHKVYACEVTHQGLSSPVTKSFNRGEC
notes: Fusion protein of anifrolumab, TACI-19-16 and BCMA-ECD-2
- EC50 relative to that of telitacicept [1]: 0.333 ratio
- Emax [2]: 2.8 nM
- IC50, inhibition of IFN-α-induced in vitro differentiation of B cells into plasma cells [3]: 1.9 nM
- IC50 (nM), inhibition of the activity of type I interferons (IFN-β, HEK-Blue IFN-α/β cells) [4]: 1.64 nM

B2: B805201 (other)
heavy: EVQLVQSGAEVKKPGESLKISCKGSGYIFTNYWIAWVRQMPGKGLESMGIIYPGDSDIRYSPSFQGQVTISADKSITTAYLQWSSLKASDTAMYYCARHDIEGFDYWGRGTLVTVSSASTKGPSVFPLAPSSKSTSGGTAALGCLVKDYFPEPVTVSWNSGALTSGVHTFPAVLQSSGLYSLSSVVTVPSSSLGTQTYICNVNHKPSNTKVDKRVEPKSCDKTHTCPPCPAPEFEGGPSVFLFPPKPKDTLMISRTPEVTCVVVDVSHEDPEVKFNWYVDGVEVHNAKTKPREEQYNSTYRVVSVLTVLHQDWLNGKEYKCKVSNKALPASIEKTISKAKGQPREPQVYTLPPSRDELTKNQVSLTCLVKGFYPSDIAVEWESNGQPENNYKTTPPVLDSDGSFFLYSKLTVDKSRWQQGNVFSCSVMHEALHNHYTQKSLSLSPGKGGGGSGGGGSGGGGSSTSCREEQGEFYDHLLRDCISCASICGQHPKQCAAFCE
light: B1 light
notes: Anifrolumab with TACI-19-16 at the C-terminus of the heavy chain; also called B80521
- EC50 relative to that of telitacicept [1]: 0.333 ratio
- Emax [2]: 2.85 nM
- IC50, inhibition of IFN-α-induced in vitro differentiation of B cells into plasma cells [3]: 6.21 nM
- Flow cytometry proliferating B cell proportion (%), mean, BAFF-induced, drug at 10 nM [5]: 20.4%
- Flow cytometry proliferating B cell proportion (%), mean, BAFF-induced, drug at 100 nM [5]: 24.3%
- Flow cytometry proliferating B cell proportion (%), mean, BAFF-induced, drug at 1000 nM [5]: 15%
- IC50 (nM), inhibition of the activity of type I interferons (IFN-β, HEK-Blue IFN-α/β cells) [4]: 1.63 nM
